PMC3501490 (PLoS ONE, 2012)

Molecular target: PI3K p85 SH2 domains
Test: SPR (BIAcore 3000), PI3K p85 SH2 domains
Type: binding
Conditions: HBS pH 7.4, 37°C, n = 3
Procedure: Experiments were conducted on a BIAcore™ 3000 in HBS buffer (0.01 M HEPES, pH 7.4, containing 0.15 M NaCl, 3 mM EDTA, and 0.005% v/v P-20, GE Life Sciences, Amersham, UK). Streptavidin was coupled to a research grade CM5 chip (GE Life Sciences, Amersham, UK) as previously described, [13]. Protein-peptide interactions were carried out a rate of 10 µl/min at a constant temperature of 37°C to more accurately reflect physiological conditions. Biotinylated peptides were bound to the streptavidin-coated CM5 chips at 37°C to between 25–50 RU [14]. Purified monomeric SH2 domains were passed over the immobilised peptides at a range of concentrations. Anti-phosphotyrosine monoclonal antibody (Sigma, Poole, U.K.) was passed over the chip to saturation at the end of each experiment to verify peptide coverage on the chip. Binding affinities for the single ITIM/ITSM peptides were determined by plotting equilibrium binding measurements (RU) against SH2 domain protein concentration (Origin 8, OriginLab, MA, USA). KD was defined as the concentration of SH2 protein that gave half maximal binding to the peptide. For the 60-mer peptides, SH2 domains were passed over the chip surface at 50 µl/min. KD was determined as Koff/Kon, which were determined using both GraphPad Prism 5.0 (GraphPad, La Jolla, CA, USA) and BIAevaluation Software (GE Life Sciences, Amersham,UK). […]

Kd: ~1000 nM
B1: G6B-b: inhibitory platelet receptor; affinities measured with its dual phosphopeptide (protein, UniProt O95866 18-241, looked up)
Megakaryocyte and platelet …: NPGASLDGRPGDRVNLSCGGVSHPIRWVWAPSFPACKGLSKGRRPILWASSSGTPTVPPLQPFVGRLRSLDSGIRRLELLLSAGDSGTFFCKGRHEDESRTVLHVLGDRTYCKAPGPTHGSVYPQLLIPLLGAGLVLGLGALGLVWWLHRRLPPQPIRPLPRFAPLVKTEPQRPVKEEEPKIPGDLDQEPSLLYADLDHLALSRPRRLSTADPADASTIYAVVV
